Assay results published in the DeepSol protein solubility set.

test: soluble on expression in E. coli; label from the status in PepcDB or PDB records

Sequence	soluble on expression in E. coli
RRVVVTGLGMVTPLGRGVETTWRRLIDGECGIRGLTLDDLKMKSFDEETKLYTFDQLSSKVAAFVPYGSNPGEFDEALWLNSKAVANFIGYAVCAADEALRDAEWLPTEEEEKERTGVSIGGGIGSICDIVEAAQLICEKRLRRLSPFFIPKILVNMASGHVSMKYGFQGPNHAAVTACATGAHSIGDATRMIQFGDADVMVAGGTESSIDALSVAGFSRSRALSTKFNSSPQEASRPFDCDRDGFVIGEGSGVIVLEEYEHAKRRGAKIYAELCGYGMSGDAHHITQPPEDGKGAVLAMTRALRQSGLCPNQIDYVNAHATSTPIGDAVEARAIKTVFSEHATSGTLAFSSTKGATGHLLGAAGAVEAIFSILAIHHGVAPMTLNVKNPDPIFDKRFMPLTTSKKMLVRTAMSNSFGFGGTNASLLFASI	soluble
MQDEYYMARALKLAQRGRFTTHPNPNVGCVIVKDGEIVGEGYHQRAGEPHAEVHALRMAGEKAKGATAYVTLEPCSHHGRTPPCCDALIAAGVARVVASMQDPNPQVAGRGLYRLQQAGIDVSHGLMMSEAEQLNKGFLKRMRTGFPYIQLKLGASLDGRTAMASGESQWITSPQARRDVQLLRAQSHAILTSSATVLADDPALTVRWSELDEQTQALYPQQNLRQPIRIVIDSQNRVTPVHRIVQQPGETWFARTQEDSREWPETVRTLLIPEHKGHLDLVVLMMQLGKQQINSIWVEAGPTLAGALLQAGLVDELIVYIAPKLLGSDARGLCTLPGLEKLADAPQFKFKEIRHVGPDVCLHLVGA	soluble
GSPEFEFKQKYDYFRKKLKKPADIPNRFEMKLHRNNIFEESYRRIMSVKRPDVLKARLWIEFESEKGLDYGGVAREWFFLLSKEMFNPYYGLFEYSATDNYTLQINPNSGLCNEDHLSYFTFIGRVAGLAVFHGKLLDGFFIRPFYKMMLGKQITLNDMESVDSEYYNSLKWILENDPTELDLMFCIDEENFGQTYQVDLKPNGSEIMVTNENKREYIDLVIQWRFVNRVQKQMNAFLEGFTELLPIDLIKIFDENELELLMCGLGDVDVNDWRQHSIYKNGYCPNHPVIQWFWKAVLLMDAEKRIRLLQFVTGTSRVPMNGFAELYGSNGPQLFTIEQWGSPEKLPRAHTAFNRLDLPPYETFEDLREKLLMAVENAQGFEGVD	soluble
MPPFKRTKIVATLGPATDDKEVIRALAEAGADVFRLNFSHGAPEDHRRRVGWVREVAEELGRTLAVLQDLQGPKIRVGRFREGQVLLRPGQRFVLTAEPVEGDEHRVSVSYKGLPEDVSPGQILLLDDGRIRLKVLEVRSPEILTEVEVGGVLSNNKGINIPGADLSIPALSEKDIQDLALGAELGVDWVAVSFVRTRDDLLLARHYLSRYGSKARLMAKIEKPSAVARFEEILEEADGIMVARGDLGVEMPLEEVPIVQKRLILRCIAAGKPVITATQMLESMVQNPSPTRAEASDVANAIFDGTDAVMLSAETAAGAYPVEAVAMMARIAKAVESSPEFLQKLNVLRPAPTPTTQDAIAQAADDVVEAVGARAIVVFTATGGSARRIARTRPQVPILALTPNPEVRNQLALVWGVYPHLAPDPQDTDDMVRIALREVKALGLAQVGDRVVIAAGVPFGVRGTTNLIRVERVG	soluble
MAEVITVKQTNMENIYECEFNDGSFRLCTRNLVPNFNVYGERLIKYEGVEYREWNAFRSKLAGAILKGLKTNPIRKGTKVLYLGAASGTTISHVSDIIELNGKAYGVEFSPRVVRELLLVAQRRPNIFPLLADARFPQSYKSVVENVDVLYVDIAQPDQTDIAIYNAKFFLKVNGDMLLVIKARSIDVTKDPKEIYKTEVEKLENSNFETIQIINLDPYDKDHAIVLSKYKG	soluble
MSLSDRDSTLSRLKSAGENGDVEAQYALGLMYLYGEILDVDYQQAKIWYEKAADQNDPRAQAKLGVMYANGLGVNQDYQQSKLWYEKAAAQNDVDAQFLLGEMYDDGLGVSQDYQHAKMWYEKAAAQNDERAQVNLAVLYAKGNGVEQDYRQAKSWYEKAAAQNSPDAQFALGILYANANGVEQDYQQAKDWYEKAAEQNFANAQFNLGMLYYKGEGVKQNFRQAREWFEKAASQNQPNAQYNLGQIYYYGQGVTQSYRQAKDWFEKAAEKGHVDAQYNLGVIYENGEGVSQNYQQAKAWYEKAASQNDAQAQFELGVMNELGQGESIDLKQARHYYERSCNNGLKKGCERLKELLYKEGHHHHHH	soluble
MGSDKIHHHHHHMILKHRRPNIYGLMNKEGNKEEVEMIINELLNRDYKITFLPSGSSAVFLSMWIAKIYSNEISIPDMGGWQGFLKFPKLLNLKNNMIETNLGIIDLEKLDESLKENSSLILTSLAGYLAPQPLKEIKKLCEEREVLFIEDISGKIGGDCGYGDIVVCSTGTPKILNCEYGGFLGISKEIEEKLGNALNDIKILSKTYKTINYFGLLKEELLNAKKTYKKYVEASKIIKDEIENAYFREFEGISVFIECDNPKNISKKINSLIKLDNRKSITTICPNYDRILKNGIVFETKKIDISELNREVINEIIIALSSIL	not soluble
MADETIAIVDADATAETRSLLSYLDGVRGEGILFGHQHTTSFGLTTGPTDGTTSDVKNVTGDFPAVFGWDTLIIEGNERPGLAENTRDENIALFADYIRKADAIGGVNTVSAHVENFVTGGSFYDTSGDTLRAVLPGGSHHAELVAYLDDIAELADASRRDDGTLIPIVFRPWHENAGSWFWWGAAYGSPGEYQELYRFTVEYLRDVKGVSNFLYAWGPGGGFGGNRDVYLRTYPGDAFVDVLGLDTYDSTGSDAFLAGLVADLRMIAEIADEKGKVSAFTEFGVSGGVGTNGSSPAQWFTKVLAAIKADPVASRNAYMETWRNADAGQHFVPVPGDALLEDFQAYAADPFTLFASEVTGAFDRTVAAAPAQPVVHIASPADGARVASAPTTVRVRVGGTDVQSVTVEVAQGGTVVDTLDLAYDGALWWTAPWSPTSAQLDNSTYTVTATATTAAGTLDVTNEVAAALEHHHHHH	soluble
MGSDKIHHHHHHMSRTLIIYSTVDGQTKAICDQIAEQCKSDTQPVTMVSLEEAQSVNLSYFDKVIIGASIRYGKHRPELFQYVNRHRAVLNGKKNAFFTVNVVARKPEKNTPETNPYMKKFLQLSLWQPQQLGVFAGKIDYPKYRFFDKFMIRFIMWITKGPTDTSGTYEFTDWDKVQEFAKAFSER	not soluble
AHHHHHHGSPRWGRGRRRKMRMIEFIPYARHFYPALPRFGPPKPPIIMTYEEFEALRLVDYEGLTQEEAGKRMGVSRGTIWRALTSARKKVAQMLVEGRELIILPQGNEVIKSDEE	not soluble
MGSDKIHHHHHHAGTYNPKNTTSFNINKSNYVAKGRIYKLRLPAAGRVVTNSDITLKNSMEWTCIPYGKDKNTYYLRKGTYYLTSSKNTNVKTAYTRLTKIRKNLETYVETKKNNDNSSLRAREIKVGQKIKAMGAMYDYDGIDYYRFTIDSPQMVTMKMTNAPIYQLGNGNIFSKMGITMFSDNNPVGDNTILYPETFSSKGNKSASQSWYLAKGTYYFSVSTRGLYNFQLTAVPDTRMVPADTEIESLKDTKDGVVASLRDALHAKTYELAWREKGSKFAPFSSSSNTTKVSTASATRYLKVNGHEIPVQIGRKLVNGQTYEFVARGVSNPNYIRYGNPETDNYFGAWTKIVEHTYYAPANGVPGAVELNAQADNTYHNIHVSWTKIDTAQSYRVAYRQKGTNKWYYEVTDQDSNAVTGITRNKTYELKLQALNGKEEGPWSTVKEVFLK	not soluble
MGSDKIHHHHHHMFLKNCWYVAAWSHEIDRTLQPQTFLGENVVLYRKQDGTPVALEDACPHRKLPLSDGALQGDTVECGYHGLTFDCAGACVAAPTQKDAIPKRATVKSYPVVDRYRFTWIWMGDPAEADPDLIFPIPNFDDPTWGKTDGGVLDIDCNYLWVVDNLLDPSHVAWVHVTSFAGGGTDGAPLQVDKTEHGVQVTRWIFGEPPSPYYENLLAFQGPCDRLQHYEMTRPAMATNMSIYTPPGTGGYGRSPVENTFINISYNFMTPITEDKTRYFWFQHRNSEPDNVEMSETMNKGAVMAFHEDKAILEKVHTGMKHAVTPHIDLGLDAGAKTFRLGLQKAIETENA	not soluble
MIRMSVLASGSTGNATYVESDKGSILVDAGLTGKKMEELFGQIDKQIQNLNGILVTHEHSDHIKGLGVLARKYKLPIYANEKTWTAIEKKDSKIPMDQKFIFNPYETKSLAGFDIESFNVSHDAIDPQFYIFHNNYKKFTILTDTGYVSDRMKGMIQGSDAFVFESNHDVDMLRMCGYPWKTKQRILSDMGHVSNEDAGRAMTDVITGSTKRIYLSHLSQDNLEHHHHHH	not soluble
MICFRTAFILILGVVIGTTAKRHNVRRHVNGKWTDKHCEEPPSLKEDLATWMQISMSGQFDDTALEEWSTNGKEPEICEKSPKADGVTTIMERALCPWDSRVNYQESREPKLIAESVCLCRKSRGSTGAFCMPIVRKVPILRRVSCDRSTGLWNYVRSTELITVGCHSVLPRTQRAARLAHLSSSRIIV	not soluble
MGSDKIHHHHHHMSKKQEEIAIKEQRLLSMMEENELEGICLSRAANFAWLTAGSNNRVVWGQETGAAALVIVEGRKFLVAPQNEIERLMLEQVADLGFEPWTYEWYEDRQQAIARLVGNKKIGSDIPLGNWPVIEAELKRLRFSLTDHEVERAEKLAAICSDDLAAVCQAIVPGWSEWNIQVELSNRLLKQGVRASVLLVGADDRTRFKHPLPTLNPVCNYVIIGLVGEQCGLHMALTRSIYFGRVPEALRQNYNCCLAVERTYWENSVVDADSQKVFQQGINAYADLGHPEEWKRHHQGGAIGYAPREFRAGEGRREVMQDRQMLAWNPTVENTKCEDTCLVTPTGLKSMTTVPSWWPTTTVKAGNINFLRPLILEK	not soluble
MKNIKDEWVQIALDLTSGLSSKDRFERLLSTIRNALKCDASALLLFKNQYFSPLATNGLDGDVIGRRFAISQHPRLEAIARAGDIVRFPSDSDLPDPYDGLIANEERQLQVHSCIGLPLLVNERLIGAVTIDAFDPTQFDSFTNKELRIISALAATSLHTALLMERLENQS	not soluble
MSLKTMKFILACVLLLSPLLCQAQKNLFNKYNDMKGVSSVYISKAMMELNPNLFMKDLYIGKVAEHLNSVQVLSTHDNKVREEMAKDIRSLVQSSKYELLMKQKSTVSGSEVYVNRKGSKVKELIMVMNGASSLKFVYMEGDMTTDDIKKLMLYQSTSQNEGHHHHHH	not soluble
MSAKPVIVGGGPAGMSAAMELARHGVECVLLDEASRVGGVVYRGPLREGVVLDYLGERYRENMQALHREFEQVRDRIDIRLNTRVVGGGEGELFALTPDERVEAVPFSQLLLAAGCHERSVPFPGWTLPGVIMLGGLQLQIKSGVVKPLGRTVLVGTGPLLPLVACQLHRAGVEVAGVYEASAFGRLAKETIALLNQPQLFLDGLSMVAYLKRHGIPLHYGWGVVEAHGDAELGEVTVAPYDAEWRADLTRSRRLPAQTLAVGYGFIPRTQLTQQMGLEHRYADDGYLKPVNDEWQRSSRGNIHLAGDIGGLRGGEAAMISGRIAALSMLLQLGKLDEQQALRQRQACLDQMASILRFRKGIDSFTRRGRGQLALPARDTVICRCEHATRQDIDTALEQGVNDLISLKMRTRVSMGDCQGKMCVGYCSDRLREHTGKRDVGWIRPRFPLDPLPFSAFSAIDAQQTEEILEHHHHHH	not soluble
MKIIITGEPGVGKTTLVKKIVERLGKRAIGFWTEEVRDPETKKRTGFRIITTEGKKKIFSSKFFTSKKLVGSYGVNVQYFEELAIPILERAYREAKKDRRKVIIIDEIGKMELFSKKFRDLVRQIMHDPNVNVVATIPIRDVHPLVKEIRRLPGAVLIELTPENRDVILEDILSLLERLEHHHHHH	not soluble
SAAPVDLELKKAFTELQAKVIDTQQKVKLADIQIEQLNRTKKHAHLTDTEIMTLVDETNMYEGVGRMFILQSKEAIHSQLLEKQKIAEEKIKELEQKKSYLERSVKEAEDNIREMLMARRAQ	soluble
